Laboratory results taken from IntAct's records for PubMed 16266891.

target: pim1_human PIM1 (UniProt P11309)

Substance	effect of a mutation on the interaction
Small ribosomal subunit protein eS19 (Homo sapiens) (from UniProt P39019) R56Q	increasing interaction
Small ribosomal subunit protein eS19 (Homo sapiens) (from UniProt P39019) R62W	increasing interaction
Small ribosomal subunit protein eS19 (Homo sapiens) (from UniProt P39019) R101H	decreasing interaction
